Data published in US20100047228A1.
Each block holds one binder with its values, some of them ahead of it.

Legend:
Experiment in all cases: cell-based or functional assay
[1] = target: mini-plasmin (human) (UniProt P00747)
[2] = target: micro-plasmin (UniProt P00747)
[3] = target: delta-plasmin (human) (UniProt P00747)
[4] = target: plasmin (human) (UniProt P00747)
Chain of plasmin (human) (P00747 20-580, chain 1 of 2): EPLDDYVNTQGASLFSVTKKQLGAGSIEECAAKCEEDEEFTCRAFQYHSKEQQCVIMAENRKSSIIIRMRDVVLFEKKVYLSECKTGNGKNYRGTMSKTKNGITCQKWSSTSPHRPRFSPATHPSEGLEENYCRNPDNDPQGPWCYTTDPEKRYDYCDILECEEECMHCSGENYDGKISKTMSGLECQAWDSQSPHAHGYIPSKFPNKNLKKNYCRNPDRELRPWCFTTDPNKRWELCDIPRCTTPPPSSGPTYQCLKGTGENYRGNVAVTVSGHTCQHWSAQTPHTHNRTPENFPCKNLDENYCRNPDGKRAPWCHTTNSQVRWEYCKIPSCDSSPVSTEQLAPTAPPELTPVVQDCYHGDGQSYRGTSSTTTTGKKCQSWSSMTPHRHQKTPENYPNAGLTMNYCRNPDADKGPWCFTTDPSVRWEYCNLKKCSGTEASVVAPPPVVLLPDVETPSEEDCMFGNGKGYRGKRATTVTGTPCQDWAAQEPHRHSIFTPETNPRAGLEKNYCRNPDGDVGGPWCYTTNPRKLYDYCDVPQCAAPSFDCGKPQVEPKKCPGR
Chain of plasmin (human) (P00747 581-810, chain 2 of 2): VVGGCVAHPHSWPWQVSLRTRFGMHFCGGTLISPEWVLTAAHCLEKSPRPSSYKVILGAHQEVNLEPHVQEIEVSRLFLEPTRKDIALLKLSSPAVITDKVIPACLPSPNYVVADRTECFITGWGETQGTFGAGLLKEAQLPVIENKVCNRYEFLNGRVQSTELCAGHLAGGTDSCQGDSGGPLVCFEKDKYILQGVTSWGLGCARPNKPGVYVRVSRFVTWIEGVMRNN

Chain of micro-plasmin (P00747 562-810 limits assumed): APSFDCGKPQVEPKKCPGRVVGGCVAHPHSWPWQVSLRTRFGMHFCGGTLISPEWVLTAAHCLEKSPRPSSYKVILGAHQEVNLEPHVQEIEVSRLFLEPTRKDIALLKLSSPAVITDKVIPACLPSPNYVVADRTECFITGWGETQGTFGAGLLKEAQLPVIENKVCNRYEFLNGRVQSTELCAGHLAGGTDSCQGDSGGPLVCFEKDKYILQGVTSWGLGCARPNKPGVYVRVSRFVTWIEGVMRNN
Chain of delta-plasmin (human) (P00747 other isoform, or with tags, fused parts or gaps mutant limits assumed): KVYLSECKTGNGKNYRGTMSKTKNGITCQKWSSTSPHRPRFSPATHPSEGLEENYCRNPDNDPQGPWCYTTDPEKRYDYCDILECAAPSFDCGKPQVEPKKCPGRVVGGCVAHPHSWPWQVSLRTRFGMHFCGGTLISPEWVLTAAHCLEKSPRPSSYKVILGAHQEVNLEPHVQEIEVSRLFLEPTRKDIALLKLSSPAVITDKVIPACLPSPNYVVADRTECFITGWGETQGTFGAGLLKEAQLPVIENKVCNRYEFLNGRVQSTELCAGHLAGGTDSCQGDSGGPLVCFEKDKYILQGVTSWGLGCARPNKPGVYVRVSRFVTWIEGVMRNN
Chain of mini-plasmin (human) (P00747 462-580, chain 1 of 2): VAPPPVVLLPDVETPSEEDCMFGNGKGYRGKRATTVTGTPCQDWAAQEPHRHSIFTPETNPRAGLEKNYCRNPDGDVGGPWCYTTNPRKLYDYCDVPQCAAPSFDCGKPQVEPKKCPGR
Chain of mini-plasmin (human) (P00747 581-810, chain 2 of 2): as the sequence (P00747 581-810, chain 2 of 2) above

inhibition rate [1]: 240000 M⁻¹ s⁻¹
inhibition rate [2]: 180000 M⁻¹ s⁻¹
inhibition rate (second of two separate experiments) [2]: 310000 M⁻¹ s⁻¹
inhibition rate [3]: 1e+07 M⁻¹ s⁻¹
inhibition rate, fold against micro-plasmin or mini-plasmin [3]: 40 fold
rate of inhibition [3]: 1.1e+07 M⁻¹ s⁻¹
B1: α2-antiplasmin (protein, UniProt P08697 40-491, looked up)
chain: NQEQVSPLTLLKLGNQEPGGQTALKSPPGVCSRDPTPEQTHRLARAMMAFTADLFSLVAQTSTCPNLILSPLSVALALSHLALGAQNHTLQRLQQVLHAGSGPCLPHLLSRLCQDLGPGAFRLAARMYLQKGFPIKEDFLEQSEQLFGAKPVSLTGKQEDDLANINQWVKEATEGKIQEFLSGLPEDTVLLLLNAIHFQGFWRNKFDPSLTQRDSFHLDEQFTVPVEMMQARTYPLRWFLLEQPEIQVAHFPFKNNMSFVVLVPTHFEWNVSQVLANLSWDTLHPPLVWERPTKVRLPKLYLKHQMDLVATLSQLGLQELFQAPDLRGISEQSLVVSGVQHQSTLELSEVGVEAAAATSIAMSRMSLSSFSVNRPFLFFIFEDTTGLPLFVGSVRNPNPSAPRELKEQQDSPGNKDFLQSLKGFPRGDKLFGPDLKLVPPMEEDYPQFGSPK

inhibition rate [4]: 650000 M⁻¹ s⁻¹
inhibition rate [1]: 750000 M⁻¹ s⁻¹
inhibition rate [2]: 780000 M⁻¹ s⁻¹
inhibition rate [3]: 760000 M⁻¹ s⁻¹
B2: α2-macroglobulin (protein, UniProt P01023 24-1474, looked up)
chain: SVSGKPQYMVLVPSLLHTETTEKGCVLLSYLNETVTVSASLESVRGNRSLFTDLEAENDVLHCVAFAVPKSSSNEEVMFLTVQVKGPTQEFKKRTTVMVKNEDSLVFVQTDKSIYKPGQTVKFRVVSMDENFHPLNELIPLVYIQDPKGNRIAQWQSFQLEGGLKQFSFPLSSEPFQGSYKVVVQKKSGGRTEHPFTVEEFVLPKFEVQVTVPKIITILEEEMNVSVCGLYTYGKPVPGHVTVSICRKYSDASDCHGEDSQAFCEKFSGQLNSHGCFYQQVKTKVFQLKRKEYEMKLHTEAQIQEEGTVVELTGRQSSEITRTITKLSFVKVDSHFRQGIPFFGQVRLVDGKGVPIPNKVIFIRGNEANYYSNATTDEHGLVQFSINTTNVMGTSLTVRVNYKDRSPCYGYQWVSEEHEEAHHTAYLVFSPSKSFVHLEPMSHELPCGHTQTVQAHYILNGGTLLGLKKLSFYYLIMAKGGIVRTGTHGLLVKQEDMKGHFSISIPVKSDIAPVARLLIYAVLPTGDVIGDSAKYDVENCLANKVDLSFSPSQSLPASHAHLRVTAAPQSVCALRAVDQSVLLMKPDAELSASSVYNLLPEKDLTGFPGPLNDQDNEDCINRHNVYINGITYTPVSSTNEKDMYSFLEDMGLKAFTNSKIRKPKMCPQLQQYEMHGPEGLRVGFYESDVMGRGHARLVHVEEPHTETVRKYFPETWIWDLVVVNSAGVAEVGVTVPDTITEWKAGAFCLSEDAGLGISSTASLRAFQPFFVELTMPYSVIRGEAFTLKATVLNYLPKCIRVSVQLEASPAFLAVPVEKEQAPHCICANGRQTVSWAVTPKSLGNVNFTVSAEALESQELCGTEVPSVPEHGRKDTVIKPLLVEPEGLEKETTFNSLLCPSGGEVSEELSLKLPPNVVEESARASVSVLGDILGSAMQNTQNLLQMPYGCGEQNMVLFAPNIYVLDYLNETQQLTPEIKSKAIGYLNTGYQRQLNYKHYDGSYSTFGERYGRNQGNTWLTAFVLKTFAQARAYIFIDEAHITQALIWLSQRQKDNGCFRSSGSLLNNAIKGGVEDEVTLSAYITIALLEIPLTVTHPVVRNALFCLESAWKTAQEGDHGSHVYTKALLAYAFALAGNQDKRKEVLKSLNEEAVKKDNSVHWERPQKPKAPVGHFYEPQAPSAEVEMTSYVLLAYLTAQPAPTSEDLTSATNIVKWITKQQNAQGGFSSTQDTVVALHALSKYGAATFTRTGKAAQVTIQSSGTFSSKFQVDNNNRLLLQQVSLPELPGEYSMKVTGEGCVYLQTSLKYNILPEKEEFPFALGVQTLPQTCDEPKAHTSFQISLSVSYTGSRSASNMAIVDVKMVSGFIPLKPTVKMLERSNHVSRTEVSSNHVLIYLDKVSNQTLSLFFTVLQDVPVRDLKPAIVKVYDYYETDEFAIAEYNAPCSKDLGNA
